Reference: the supplement of paper PMC9170038

Tested on: MS2 coat protein
Experiment: apparent KD of MS2 coat protein; designed switch direction (-1 OFF switch, 1 ON switch): 1; higher = weaker reporter binding
In short: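 Normalised cluster fluorescence was curve-fitted, and each design's median over clusters is its apparent KD. Before this, SNAP-549-labelled MS2 coat protein was titrated from 0.7 or 1.5 nM, doubling to 3 µM, over RNA switches transcribed on Illumina chips by stalled E. coli RNA polymerase. Titrations had no input, 200 uM small-molecule ligand, or an oligonucleotide input, and steps lasted 0.8–1.5 h (lowest) to 10–20 min (highest).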

[1] = input ligand: microRNA oligo, concentration not stated
[2] = Eterna round: R95, input ligand: FMN 200 uM
[3] = Eterna round: R95, input ligand: microRNA oligo, concentration not stated
[4] = Eterna round: R95, input ligand: none

GGCGUAUAAACAUGAGGAUCACCCAUGUAGCGGAGACGCAAUGAGGAUAUCGAUGGGUUUCCCGUCGAGAAGGCAUGGGUCGCC [JL SSNG3 3.93] (Eterna round: R96, puzzle: Same State NG 3)
apparent KD of MS2 coat protein (input ligand: FMN 200 uM): 17 nM | apparent KD of MS2 coat protein [1]: 79.9 nM | apparent KD of MS2 coat protein (input ligand: none): 105 nM

GCUACCAAAGAAGCCAACAUGAGGAUCACCCAUGUAUGUUGGUAGGAUAUCGAUUGCAAAGCGAUCGAGAAGGGCUAAGGUAGC [Mat - Same State NG 3 - JL Mod - D84] (Eterna round: R96, puzzle: Same State NG 3)
apparent KD of MS2 coat protein (input ligand: FMN 200 uM): 132 nM | apparent KD of MS2 coat protein [1]: 93.1 nM | apparent KD of MS2 coat protein (input ligand: none): 95.5 nM

CUCGAGAGGUUAUAGGAUAUCCAUUUACGUACAUGAGGAUCACCCAUGUCUGACCGCUGGGUCAGGGAGAAGGGUAAGAUCGAGA [Tegeoror] (puzzle: Same State 2)
apparent KD of MS2 coat protein [2]: 275 nM | apparent KD of MS2 coat protein [3]: 420 nM | apparent KD of MS2 coat protein [4]: 600 nM

CGGCGCUGUCGAGAGGAUAUGCGGUGAUGGACAUGAGGAUCACCCAUGUUAGCGAUAGCAUCACGGUAGAAGGCUCUACGGCUUG [Soteed Omei mod 21] (puzzle: Same State 2)
apparent KD of MS2 coat protein [3]: 31 nM

UUCCCAGCGGGAGGAUAUGGUGCCUUGUUGGUGCUAGAAGGUCCAACAUGAGGAUCACCCAUGUGGGAGUGGUUGAGAGACCUC [SS NG10LRO11] (Eterna round: R96, puzzle: Same State NG 1)
apparent KD of MS2 coat protein (input ligand: FMN 200 uM): 225 nM | apparent KD of MS2 coat protein [1]: 200 nM | apparent KD of MS2 coat protein (input ligand: none): 274 nM

AAUUAAGAUCAAGGAUAUCACGUCGAAUAGACGUGAGAAGGUGAUCCAUACAUGAGGAUCACCCAUGUAUAACAUGAAUUAAUU [SSNG1/8-B1] (Eterna round: R96, puzzle: Same State NG 1)
apparent KD of MS2 coat protein [1]: 607 nM

CCCUGAGGUAACCUACAGGGACAUGAGGAUCACCCAUGUACACAGGAUAUCGAAGGCUCCGCCCUCGAGAAGGGUGAUCAAACU [Leuslein] (Eterna round: R96, puzzle: Same State NG 3)
apparent KD of MS2 coat protein (input ligand: FMN 200 uM): 1520 nM | apparent KD of MS2 coat protein [1]: 266 nM | apparent KD of MS2 coat protein (input ligand: none): 109 nM

GGUGCGAAAUAAGCCUACAUGAGGAUCACCCAUGUAUGUAGGCAGGAUAUCGUAUGCAAAGCAUACGAGAAGGGCUGACGCACC [Mat - Same State NG 3 - JL Mod - D51] (Eterna round: R96, puzzle: Same State NG 3)
apparent KD of MS2 coat protein (input ligand: FMN 200 uM): 32.5 nM | apparent KD of MS2 coat protein [1]: 55.9 nM | apparent KD of MS2 coat protein (input ligand: none): 75.4 nM

CCGCUAAAUGGAGGAUAUGGAGCCUUAUUGGCUCCAGAAGGCUAAAACAUGAGGAUCACCCAUGUGCGGCGGUCUAAUGACCGA [Eli NG1ss - 49] (Eterna round: R96, puzzle: Same State NG 1)
apparent KD of MS2 coat protein (input ligand: FMN 200 uM): 14.7 nM | apparent KD of MS2 coat protein [1]: 34.6 nM | apparent KD of MS2 coat protein (input ligand: none): 49.3 nM

UGGCUCAGACGAGGAUAUAUGUCUCGAGCUUCGGCUCGAGACAUGAGGAUCACCCAUGUAAUAACAUAGAAGGCGUCUGAGCCU [SSNG2/1-A3] (Eterna round: R96, puzzle: Same State NG 2)
apparent KD of MS2 coat protein (input ligand: FMN 200 uM): 12.6 nM | apparent KD of MS2 coat protein [1]: 29 nM | apparent KD of MS2 coat protein (input ligand: none): 34.3 nM

GCCGGCUGGUGAGGAUAUGGCACCUUAUUGGUGCCAGAAGGCAUGUCAAUUGACAUGAGGAUCACCCAUGUAUUAUCGUUGGCG [salish99_SSNG1_r04_607] (Eterna round: R96, puzzle: Same State NG 1)
apparent KD of MS2 coat protein (input ligand: FMN 200 uM): 725 nM | apparent KD of MS2 coat protein [1]: 325 nM | apparent KD of MS2 coat protein (input ligand: none): 370 nM

GUUACAUGAGGAUCACCCAUGUAUGUGUGGGAGUAAGUGUCUUAGGAUAUCUAUUAAUUAAAUUAAGAGAAGGAAGAUUGUUGU [JMF's solution 14] (Eterna round: R96, puzzle: Same State NG 3)
apparent KD of MS2 coat protein (input ligand: FMN 200 uM): 127 nM | apparent KD of MS2 coat protein [1]: 83.7 nM | apparent KD of MS2 coat protein (input ligand: none): 112 nM

CUGCAACAUGAGGAUCACCCAUGUAACCCAAUUAUAGGAUAUGUGAUAGUGAUCGACAUGACAGAAGGGUGAUUGG [Riraence] (puzzle: Same State 1)
apparent KD of MS2 coat protein [2]: 149 nM | apparent KD of MS2 coat protein [3]: 188 nM | apparent KD of MS2 coat protein [4]: 291 nM

UGCUAUCGAAAACGAUAGCUAAAGUUUGUACAUGAGGAUCACCCAUGUUGUACAAGCUUUUUGCUCGUCUUAAAUAA [JL SD Zipper 16] (Eterna round: R96, puzzle: Sensor for hsa-mir-208a)
apparent KD of MS2 coat protein (input ligand: FMN 200 uM): 67.1 nM | apparent KD of MS2 coat protein [1]: 15.2 nM | apparent KD of MS2 coat protein (input ligand: none): 62.4 nM

AAUCCUGUCACAGGAUAUCCGAGGUCAACCCUCGGAGAAGGGUGAUAGUCUAACAAACACACACAUGAGGAUCACCCAUGUUAA [Bigeceaor] (Eterna round: R96, puzzle: Same State NG 1)
apparent KD of MS2 coat protein (input ligand: FMN 200 uM): 43.1 nM | apparent KD of MS2 coat protein [1]: 61.6 nM | apparent KD of MS2 coat protein (input ligand: none): 79.2 nM

UUUAGAUUCAGAGGAUAUUGAUGUUGUAAGUAACAAGAAGGCUGAUUGGUUAGAAUUGUUUAUUAACAUGAGGAUCACCCAUGU [JR_SSNG1_Sub010] (Eterna round: R96, puzzle: Same State NG 1)
apparent KD of MS2 coat protein (input ligand: FMN 200 uM): 18.1 nM | apparent KD of MS2 coat protein [1]: 28.2 nM | apparent KD of MS2 coat protein (input ligand: none): 30.6 nM

UGGCAACAUGAGGAUCACCCAUGUCAAACUAAUCGAGGAUAUGGGAACUAACAACACAAACUAGAAGGCGAACUUG [Altered State 1-10 - Jieux - Same State 1] (puzzle: Same State 1)
apparent KD of MS2 coat protein [2]: 74.9 nM | apparent KD of MS2 coat protein [3]: 32 nM | apparent KD of MS2 coat protein [4]: 38.3 nM

GUCCAAAACACAGGAUAUCCCAGUCAUGAUCUGGGAGAAGGGUGGCCACAUGAGGAUCACCCAUGUGAAGUGCCAGAGGCACGA [Xexeraed] (Eterna round: R96, puzzle: Same State NG 1)
apparent KD of MS2 coat protein (input ligand: FMN 200 uM): 373 nM | apparent KD of MS2 coat protein [1]: 876 nM | apparent KD of MS2 coat protein (input ligand: none): 1020 nM

GGUCCAGCCUGAGCUGGACAAAAGCAUGUACAUGAGGAUCACCCAUGUCAUGUACAAGCUUUUUGCUCGUCUUAAGA [Mat - hsa-mir-208a - 88] (Eterna round: R96, puzzle: Sensor for hsa-mir-208a)
apparent KD of MS2 coat protein (input ligand: FMN 200 uM): 752 nM | apparent KD of MS2 coat protein [1]: 15.4 nM | apparent KD of MS2 coat protein (input ligand: none): 712 nM

AAUUAAUUAAUUAAUAUACAUGAGGAUCACCCAUGUAAGAUCAAGGAUAUCAGCUCGUUUAGAGCUGAGAAGGUGAUCACAUGU [SSNG3/16-A3] (Eterna round: R96, puzzle: Same State NG 3)
apparent KD of MS2 coat protein (input ligand: FMN 200 uM): 447 nM | apparent KD of MS2 coat protein [1]: 156 nM | apparent KD of MS2 coat protein (input ligand: none): 302 nM

AGGCUCAGAGCAGGAUAUAUGCGAUCACAUGAGGAUCACCCAUGUCUCGAGCUUCGGCUCGAGGCAUAGAAGGGCUCUGAGCCA [SSNG2/4-B1] (Eterna round: R96, puzzle: Same State NG 2)
apparent KD of MS2 coat protein (input ligand: FMN 200 uM): 18.9 nM | apparent KD of MS2 coat protein [1]: 28.6 nM | apparent KD of MS2 coat protein (input ligand: none): 51.8 nM

UUGCGGGAUUGAGGAUAUUGAGUACAUAUGUUUAACAUGAGGAUCACCCAUGUGGGUUGCGGUAUCGAGAAGGUAACUUACUAC [salish99_SSNG2_r04_805] (Eterna round: R96, puzzle: Same State NG 2)
apparent KD of MS2 coat protein [1]: 75.5 nM

GCCCGUAGCCACAUGAGGAUCACCCAUGUGCAGUUGUGAUCCGAGGAUAUUGCUAUUUGAGAUAGUAAGAAGGUGGACCGCGGU [Eternabot solution 31] (Eterna round: R96, puzzle: Same State NG 3)
apparent KD of MS2 coat protein (input ligand: FMN 200 uM): 109 nM | apparent KD of MS2 coat protein [1]: 84.4 nM | apparent KD of MS2 coat protein (input ligand: none): 143 nM

CAUAAACCUCACGAGGAUAUCCACAGAUAGACAUGAGGAUCACCCAUGUCGACUUUCGAACUGAGGGAGAAGGCGUAGGUACUAA [Gebiorge] (puzzle: Same State 2)
apparent KD of MS2 coat protein [2]: 12.1 nM | apparent KD of MS2 coat protein [3]: 13.1 nM | apparent KD of MS2 coat protein [4]: 13.4 nM

GGAGCCAAGGCAGGAUAUUCAUAUUAAUUACAUGAGGAUCACCCAUGUUGGGCCAGAAGGCCUUGGGAGAAGGGCCAUGGCUCG [Xeonanis - 13 mod18] (Eterna round: R96, puzzle: Same State NG 2)
apparent KD of MS2 coat protein (input ligand: FMN 200 uM): 27.1 nM | apparent KD of MS2 coat protein [1]: 56.5 nM | apparent KD of MS2 coat protein (input ligand: none): 84 nM

AGAGGAGGAGCAGGAUAUGCGAAGAAGAACGUGGCAGAAGGGUUCAUGCGAUGACAUGAGGAUCACCCAUGUACCGCGCGAGGA [AK SSNG1-V2-10] (Eterna round: R96, puzzle: Same State NG 1)
apparent KD of MS2 coat protein (input ligand: FMN 200 uM): 64.4 nM | apparent KD of MS2 coat protein [1]: 33.9 nM | apparent KD of MS2 coat protein (input ligand: none): 62.6 nM

GGAGCCGGCCUAGGAUAUUUCAUAAAUUUACAUGAGGAUCACCCAUGUAGGCCAGAAGGCCUUGGGAAGAAGGAGGUCGGCUCC [Loop Effect - U27,U28,U29] (Eterna round: R96, puzzle: Same State NG 2)
apparent KD of MS2 coat protein (input ligand: FMN 200 uM): 11.3 nM | apparent KD of MS2 coat protein [1]: 27.5 nM | apparent KD of MS2 coat protein (input ligand: none): 40.5 nM

GGAGCCAAGGCAGGAUAUUCAUAUUAUAAACAUGAGGAUCACCCAUGUAGGGCCAGAAGGCCUUGGGAGAAGGGCCAUGGCUCG [Xeonanis - 13 mod16] (Eterna round: R96, puzzle: Same State NG 2)
apparent KD of MS2 coat protein (input ligand: FMN 200 uM): 20.2 nM | apparent KD of MS2 coat protein [1]: 53.8 nM | apparent KD of MS2 coat protein (input ligand: none): 71 nM

UGUUGUUAAUUAGGAUAUGGGCACAUGAGGAUCACCCAUGUAUUUUCGAUGCUAUGUGGAGACGUCUAGAAGGAAUGGCUAACA [SameState NG2 #89] (Eterna round: R96, puzzle: Same State NG 2)
apparent KD of MS2 coat protein (input ligand: FMN 200 uM): 205 nM | apparent KD of MS2 coat protein [1]: 212 nM | apparent KD of MS2 coat protein (input ligand: none): 219 nM

AUAUAACAUGAGGAUCACCCAUGUCACUAAAGUCGAGGAUAUGGGCAGGUUAUAUCCGAACCAGAAGGCGAAUUAU [SS1 Teenbexe 6] (Eterna round: R96, puzzle: Same State 1)
apparent KD of MS2 coat protein (input ligand: FMN 200 uM): 41 nM | apparent KD of MS2 coat protein [1]: 221 nM | apparent KD of MS2 coat protein (input ligand: none): 208 nM
